This series addresses PCBP2 KH1/2 (human, UniProt Q15366 1-168). The experiment in a line: ITC.

Sequence of PCBP2 KH1/2 (Q15366 1-168): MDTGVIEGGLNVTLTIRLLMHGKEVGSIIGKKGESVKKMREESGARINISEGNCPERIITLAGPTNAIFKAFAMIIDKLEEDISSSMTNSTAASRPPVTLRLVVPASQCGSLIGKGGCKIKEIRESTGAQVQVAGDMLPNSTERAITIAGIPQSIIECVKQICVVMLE

As to GCUCUGGGGUUGUACCCACCCCAGAGC (structured_RNA) [PV stem-loop B], the Kd was found to be 22.9 ± 6.3 µM.

The record behind these values is paper PMC10484678.
